Test results published in article PMC5807053, “Saposin Lipid Nanoparticles: A Highly Versatile and Modular Tool for Membrane Protein Research” (Structure(London, England:1993), 2018).
Like-named read-outs stand apart in the source and are kept apart here. Blank lines part the entries; values can stand above or below the molecule they belong to. Residues, ends and D or L forms follow the SMILES beside them.

Legend:
[1] = biological target: T1, SapA/POPS empty nanoparticles (Homo sapiens, UniProt P07602); assay: MST control for unspecific peptide binding to empty SapA/POPS nanoparticles
T1 construct: saposin A (residues 60 to 140); made in house; host or cells: E. coli Rosetta gami-2 (DE3)
T1 sequence (P07602 60-140): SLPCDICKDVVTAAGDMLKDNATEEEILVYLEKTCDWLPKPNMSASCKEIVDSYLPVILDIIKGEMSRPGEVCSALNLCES
From the text: (§1) The samples were loaded in standard glass capillaries. […] Empty SapNPs were used as control measurements.

PepTSt = conditions: MST, 20 °C
Method: PepTSt and PepTSo2 di and tripeptide binding in solution was measured by MST with the Monolith NT.LabelFree (NanoTemper technologies). The proteins were kept at a constant concentration of ∼125 nM and were combined with a series of 16 different peptide concentrations. For DDM- and SapNP-solubilized proteins, the ligands were diluted in DDM buffer (20 mM Tris pH 7.5, 150 mM NaCl, 5 % glycerol, and 0.03 % DDM) and in 1 × PBS, respectively. The thermophoretic movement of the proteins, alone and in complex with different peptides, was monitored and quantified using time-dependent intrinsic tryptophan fluorescence. The samples were loaded in standard glass capillaries. Data were acquired at 20 °C, the LED power was set to 20 %, and the MST power to 20 % and 40 %. The dissociation constant (KD) values were derived from the nonlinear fitting of the normalized fluorescence signal at different ligand concentrations using the NT analysis software. Empty SapNPs were used as control measurements.

PepTSo2 = biological target: T2, PepTSo2 (Shewanella oneidensis, UniProt Q8EHE6); assay: MST di-/tripeptide binding in solution to PepTSo2; conditions: 20 °C
T2 sequence (Q8EHE6 1-516): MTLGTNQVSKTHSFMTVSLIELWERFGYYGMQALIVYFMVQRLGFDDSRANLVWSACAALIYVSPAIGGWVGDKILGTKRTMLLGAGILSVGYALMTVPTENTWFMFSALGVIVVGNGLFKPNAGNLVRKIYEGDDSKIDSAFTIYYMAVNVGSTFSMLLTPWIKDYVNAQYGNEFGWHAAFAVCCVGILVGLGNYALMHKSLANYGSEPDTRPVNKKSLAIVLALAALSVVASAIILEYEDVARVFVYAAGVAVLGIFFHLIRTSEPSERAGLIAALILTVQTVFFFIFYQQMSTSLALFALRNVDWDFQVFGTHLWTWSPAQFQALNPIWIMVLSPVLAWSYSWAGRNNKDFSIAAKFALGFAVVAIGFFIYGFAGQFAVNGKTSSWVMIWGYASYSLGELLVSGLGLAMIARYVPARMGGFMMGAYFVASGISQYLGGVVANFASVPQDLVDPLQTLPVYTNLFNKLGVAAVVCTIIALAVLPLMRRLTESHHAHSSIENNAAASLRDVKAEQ
From the text: as §1

[2] = biological target: peptide transporter PepTSt from Streptococcus thermophilus (Streptococcus thermophilus) (UniProt Q5M4H8); assay: MST; label-free (intrinsic tryptophan fluorescence), DDM-solubilised transporter at ~125 nM, 16 peptide concentrations, 20 mM Tris pH 7.5, 150 mM NaCl, 5 % glycerol, 0.03 % DDM, 20 °C
[3] = biological target: peptide transporter PepTSt from Streptococcus thermophilus (Streptococcus thermophilus) (UniProt Q5M4H8); assay: MST; label-free, transporter reconstituted in SapA/POPS nanoparticles at ~125 nM, 16 peptide concentrations, 1x PBS, 20 °C
[4] = biological target: peptide transporter PepTSt from Streptococcus thermophilus (Streptococcus thermophilus) (UniProt Q5M4H8); assay: MST; label-free, transporter reconstituted in SapA/BL (brain total lipid extract) nanoparticles at ~125 nM, 16 peptide concentrations, 1x PBS, 20 °C
[5] = biological target: small-conductance mechanosensitive channel T2 from Thermoplasma volcanium (Thermoplasma volcanium); assay: SEC-MALS; triple-detection SEC conjugate analysis (UV, refractive index, multi-angle light scattering); 60 uL T2 at 5 mg/mL on SD200 10/300 in 20 mM Tris pH 7.5, 150 mM NaCl, 5 % glycerol, 0.03 % DDM
[6] = Protein thermal unfolding by dye-free nanoDSF; format: physicochemical; conditions: purified protein alone, 20 to 95 °C
Method: The stability of the different DDM-solubilized or SapNP-reconstituted proteins was followed using a nanoDSF (Prometheus NT.48 form NanoTemper Technologies, GmbH). The dye-free proteins were excited at 280 nm and their intrinsic fluorescence at 350 and 330 nm were measured as a function of temperature to monitor the fluorescence changes upon heat unfolding. 10 μL of protein solution at a concentration of 0.5 mg/mL were loaded in a glass capillary, and the unfolding was measured in duplicates at a heating rate of 1 °C/min between 20 and 95 °C. The first derivative of the unfolding curves (350/330 nm ratio) was used to determine the transition midpoint (Tm).

[7] = parameters: method as in Frauenfeld et al., 2016; conditions: ref Frauenfeld et al., 2016, cited from earlier work

Molecule: CC(C)C[C@H](N)C(=O)N[C@@H](C)C(=O)O [Leu-Ala] (H-Leu-Ala-OH; N-terminus and C-terminus assumed)
- unspecific peptide binding [1]: no unspecific peptide binding
- Kd (PepTSt; PepTSt in DDM): 16.6 ± 3.6 mM
- Kd (PepTSt; PepTSt in SapA/BL): 16.4 ± 3.6 mM
- Kd (PepTSt; PepTSt in SapA/POPS): 5.49 ± 1 mM

- Kd (PepTSo2; PepTSo2 in DDM): 3.4 ± 1.3 mM
- Kd (PepTSo2; PepTSo2 reconstituted in SapA/BL): 5 ± 3 mM
Molecule: C[C@H](N)C(=O)N[C@@H](Cc1ccccc1)C(=O)N[C@@H](C)C(=O)O [Ala-Phe-Ala] (H-Ala-Phe-Ala-OH; N-terminus and C-terminus assumed)

- Kd [2]: 16.6 mM
- Kd [3]: 5.49 mM
- Kd [4]: 16.4 mM
Molecule: dipeptide Leu-Ala

- stoichiometry N [5]: 7
Molecule: small-conductance mechanosensitive channel T2 from Thermoplasma volcanium (natural protein)

B1: saposin A: human saposin A, Prosaposin residues 60 to 140, recombinant (protein)
chain: T1 sequence (P07602 60-140)
modifications: left off: His6, N-terminal, cleaved
notes: human saposin A, Prosaposin residues 60 to 140, recombinant
- unfolding transition [6]: does not show an unfolding transition

B2: PepTSo2: peptide transporter from Shewanella oneidensis (protein)
chain: T2 sequence (Q8EHE6 1-516)
- Tm ([7]; encapsulated in SapA/BL nanoparticles): 72 °C
- Tm ([7]; in the detergent nonyl-β-D-maltopyranoside): 43 °C
